These results are taken from PMC12488874, “Structural insights into Wnt/β-catenin signaling regulation by LGR4, R-spondin, and ZNRF3” (Nature Communications, 2025).

B1: human ZNRF3 (residues 56-267, ECD-TMD) (domain or fragment, UniProt Q9ULT6 56-267, looked up)
chain: KETAFVEVVLFESSPSGDYTTYTTGLTGRFSRAGATLSAEGEIVQMHPLGLCNNNDEEDLYEYGWVGVVKLEQPELDPKPCLTVLGKAKRAVQRGATAVIFDVSENPEAIDQLNQGSEDPLKRPVVYVKGADAIKLMNIVNKQKVARARIQHRPPRQPTEYFDMGIFLAFFVVVSLVCLILLVKIKLKQRRSQNSMNRLAVQALEKMETRKF
notes: human ZNRF3, residues 56-267 (ECD-TMD), UniProt Q9ULT6; Cloned with the rabbit immunoglobulin heavy chain V signal peptide at the N-terminus in place of its own; no tag is named for this construct; also called Zinc and Ring Finger 3

Data set [1] has as its target human ZNRF3 (residues 56-267, ECD-TMD) (human) (UniProt Q9ULT6).
In data set [2] the target is T1, human LGR4 (residues 1-822), ECD and TMD, expressed in Expi293F cells (human, UniProt Q9BXB1 25-822).
T1 construct: signal peptide in the construct; human LGR4, residues 1-822 (ECD and TMD), UniProt Q9BXB1; no cleavage is described. pEZT-BM vector; not shown: FLAG, C-terminal, kept
Kind of data set: cryo-EM structure; LGR4, RSPO2 and ZNRF3 co-expressed in Expi293F, complex solubilised in LMNG/CHS and purified by anti-DYKDDDDK resin (FLAG on LGR4) and SEC in 0.01% GDN; two complexes in one sample, 1:1:2 (3.2 Å) and 2:2:2 (3.5 Å). The note with it: both partners purified.

Data set [3] deals with the molecule itself. The description is as above.
The target in data set [4] is B1. The data set is described as above. As to conditions: both partners purified.
For data set [5], the target named is T2, human LGR4 (residues 1-822), ECD and TMD, expressed in ExpiSf9 cells (human, UniProt Q9BXB1 25-822).
T2 construct: signal peptide in the construct; human LGR4, residues 1-822 (ECD and TMD, without the ICD), UniProt Q9BXB1; no cleavage is described; also called Leucine-rich repeat-containing G protein-coupled receptor 4; apo LGR4; source: ExpiSf9 (baculovirus), membrane fraction solubilised in LMNG/CHS, purified (Ni-NTA, SEC)
Kind of data set: cryo-EM structure; individually purified LGR4 and RSPO2 mixed at a 1:2 ratio for 3 hours at 4 °C, complex isolated by SEC (25 mM HEPES-NaOH pH 7.5, 0.15 M NaCl, 0.01% GDN); overall resolution 4.0 Å. The note with it: both partners purified. In general terms: SEC sorts molecules by how far they enter the pores of the column.

For “full-length human LGR4 (CD4 TMD): TMD (7-TM, aa526-822) replaced with that of CD4 (1-TM) (from UniProt Q9BXB1 25-525; Q9BXB1 823-951) (receptor)”, in data set [1], the RSPO2-induced TOPFlash Wnt/β-catenin reporter activity in HEK293T cells (siRNA against LGR4 and LGR5; 5% Wnt3a-conditioned medium, 3 ng/mL RSPO2), against wild-type LGR4 was determined as 50 % reduction.
What is called stoichiometry N is a count of units in the complex or per binding partner. For B1, the binding result in data set [2] was “binds”. Moreover, the “stoichiometry N” value in data set [3] was 2.

B2: human RSPO2 (residues 20-143, Fu1-2 domains) (ligand, UniProt Q6UXX9 20-143, looked up)
chain: HCQGNRWRRSKRASYVSNPICKGCLSCSKDNGCSRCQQKLFFFLRREGMRQYGECLHSCPSGYYGHRAPDMNRCARCRIENCDSCFSKDFCTKCKVGFYLHRGRCFDECPDGFAPLEETMECVE
notes: human RSPO2, Fu1-2 domains, UniProt Q6UXX9; no cleavage is described; Codon-optimised synthetic DNA in pEZT-BM; also called R-spondin 2; source: Expi293F, secreted into the medium, purified (Ni-NTA, SEC); also co-transfected in Expi293F with LGR4 and ZNRF3 and co-purified with them
On to B2, for which the binding result in data set [4] is given as “binds”. Also, the “stoichiometry N” value in data set [5] worked out at 1.
